This passage reports radiometric kinase assay (CHKtide, [^32P]-γ-ATP) of immunoprecipitated full-length CHK2 with or without CaCl2 and CaM, IC50 of CaM (0-200 μM) for the kinase activity of immunoprecipitated full-length CHK2, radiometric assay, 1 mM CaCl2 and fold decrease in radiometric kinase assay of immunoprecipitated full-length CHK2 mutant with or without CaCl2 and CaM results from paper PMC12751073.

In assay [1] the target is FLAG-tagged full-length human CHK2, wildtype (immunoprecipitated) (human) (UniProt O96017).
The target is the same in assay [2]. The source holds these as a separate data set.
Assay [3] deals with FLAG-tagged full-length human CHK2 K245A (immunoprecipitated) (human) (UniProt O96017).

Regarding “Calmodulin (recombinant, produced in-house) (from UniProt P0DP23 1-149) (natural protein)”, the radiometric kinase assay (CHKtide, [^32P]-γ-ATP) of immunoprecipitated full-length CHK2 with or without CaCl2 and CaM in assay [1] was 10 fold. The IC50 of CaM (0-200 μM) for the kinase activity of immunoprecipitated full-length CHK2, radiometric assay, 1 mM CaCl2 in assay [2] came out at 8.09 µM. In assay [3], this substance displayed a fold decrease in radiometric kinase assay of immunoprecipitated full-length CHK2 mutant with or without CaCl2 and CaM of 10 fold.
